In patent US20060142192A1 (ZymoGenetics, published 2006):
Values belong to the binder of their own block, whether it stands above or below them.

How the values were obtained:
human ZcytoR21x1 [1] = target: T1, human ZcytoR21x1 (human, UniProt Q8NFR9 24-667); assay: flow cytometry, biotinylated ligand + streptavidin-PE on stably transfected BHK cells
T1 construct: also called hcytor21x1; IL-17RE
T1 sequence: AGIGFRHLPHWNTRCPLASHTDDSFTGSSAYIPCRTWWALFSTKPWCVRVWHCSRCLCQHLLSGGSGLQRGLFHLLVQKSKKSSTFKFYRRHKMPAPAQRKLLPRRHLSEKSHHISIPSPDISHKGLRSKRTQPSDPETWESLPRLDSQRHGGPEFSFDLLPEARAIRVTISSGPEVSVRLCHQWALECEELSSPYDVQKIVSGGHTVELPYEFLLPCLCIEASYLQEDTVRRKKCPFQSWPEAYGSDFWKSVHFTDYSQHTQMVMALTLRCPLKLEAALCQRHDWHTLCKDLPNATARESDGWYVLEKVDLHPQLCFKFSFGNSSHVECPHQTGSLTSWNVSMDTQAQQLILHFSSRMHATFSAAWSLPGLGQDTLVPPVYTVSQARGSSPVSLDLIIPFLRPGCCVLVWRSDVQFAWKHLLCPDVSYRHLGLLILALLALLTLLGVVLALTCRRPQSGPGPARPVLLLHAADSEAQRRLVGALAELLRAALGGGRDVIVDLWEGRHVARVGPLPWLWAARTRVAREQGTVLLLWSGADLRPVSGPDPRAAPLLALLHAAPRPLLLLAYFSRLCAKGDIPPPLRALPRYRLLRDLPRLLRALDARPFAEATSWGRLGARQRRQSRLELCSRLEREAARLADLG

human ZcytoR21x2 [2] = target: T2, human ZcytoR21x2 (human, UniProt Q8NFR9 24-667); assay: as above
T2 construct: also called hcytor21x2
T2 sequence: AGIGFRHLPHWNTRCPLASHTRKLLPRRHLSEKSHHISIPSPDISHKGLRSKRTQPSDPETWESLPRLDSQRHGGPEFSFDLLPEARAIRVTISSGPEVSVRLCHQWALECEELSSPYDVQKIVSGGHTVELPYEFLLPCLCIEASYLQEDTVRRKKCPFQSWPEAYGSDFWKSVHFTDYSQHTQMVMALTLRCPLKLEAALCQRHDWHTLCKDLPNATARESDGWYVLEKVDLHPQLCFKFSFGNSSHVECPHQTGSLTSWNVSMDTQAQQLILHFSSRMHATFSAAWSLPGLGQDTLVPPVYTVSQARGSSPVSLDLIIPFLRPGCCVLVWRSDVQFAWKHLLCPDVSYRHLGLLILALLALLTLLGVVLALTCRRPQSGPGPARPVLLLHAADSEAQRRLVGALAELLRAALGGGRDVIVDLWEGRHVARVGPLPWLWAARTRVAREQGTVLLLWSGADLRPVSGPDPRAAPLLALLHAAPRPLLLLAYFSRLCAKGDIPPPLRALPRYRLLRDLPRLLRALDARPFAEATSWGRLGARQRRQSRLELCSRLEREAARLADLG

human ZcytoR21x1 [3] = target: T1, human ZcytoR21x1; assay: flow cytometry, biotinylated IL-17C (1 ug/ml) + streptavidin-PE on stably transfected BHK cells
Procedure: (§1) BHK cells stably transfected with human and mouse ZcytoR21 splice variants were plated and grown to confluency in T-75 flasks. Cells were lifted off using a non-protease reagent such as Versene (Invitrogen 15040-066), pelleted, and resuspended in a staining reagent (HBSS+1% BSA+0.1% NaAzide+10 mM HEPES) at 2×10e7 cells/ml and aliquoted to a 96-well Costar plate. IL-17C that has been labeled with biotin was independently added to cells at a concentration of 1 ug/ml. The cell/ligand mixture can be incubated for 1 hr at 4 degrees. The wells were washed 1× in staining reagent, and incubated in a secondary reagent containing staining reagent plus Streptavidin-PE (BD Pharmingen 554061) at a 1:100 ratio. The wells were incubated at 4° C. in the dark for 1 hr, followed by a 2× wash in staining media. The cells were then resuspended in a 1:1 mixture of staining media and Cytofix (BD Bioscience 554655) and incubated 10 minutes at RT. The cells were analysed by Flow Cytometry and by gating on the PE positive events for cells that bound IL-17C.

human ZcytoR21x2 [4] = target: T2, human ZcytoR21x2; assay: as above
Procedure: as §1

human ZcytoR21x6 = target: T3, human ZcytoR21x6 (human, UniProt Q8NFR9 24-667); assay: as above
T3 construct: also called hcytor21x6
T3 sequence: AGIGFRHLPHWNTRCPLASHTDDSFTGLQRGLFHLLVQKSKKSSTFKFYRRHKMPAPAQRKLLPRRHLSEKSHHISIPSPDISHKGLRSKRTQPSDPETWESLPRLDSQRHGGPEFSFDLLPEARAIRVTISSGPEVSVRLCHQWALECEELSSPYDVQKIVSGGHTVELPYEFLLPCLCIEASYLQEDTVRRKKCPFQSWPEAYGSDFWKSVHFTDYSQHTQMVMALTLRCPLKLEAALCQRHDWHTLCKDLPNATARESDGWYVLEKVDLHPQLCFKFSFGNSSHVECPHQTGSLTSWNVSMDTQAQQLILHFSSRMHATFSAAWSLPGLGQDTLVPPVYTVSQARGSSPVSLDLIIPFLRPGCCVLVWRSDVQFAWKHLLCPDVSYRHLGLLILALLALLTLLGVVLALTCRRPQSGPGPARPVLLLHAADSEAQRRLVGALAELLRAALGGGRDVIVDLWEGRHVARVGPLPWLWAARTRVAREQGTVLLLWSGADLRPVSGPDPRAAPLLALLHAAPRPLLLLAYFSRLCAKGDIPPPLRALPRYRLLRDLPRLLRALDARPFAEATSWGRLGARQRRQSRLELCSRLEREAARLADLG
Procedure: as §1

human ZcytoR21x13 = target: T4, human ZcytoR21x13 (human, UniProt Q8NFR9 24-667); assay: as above
T4 construct: also called hcytor21x13
T4 sequence: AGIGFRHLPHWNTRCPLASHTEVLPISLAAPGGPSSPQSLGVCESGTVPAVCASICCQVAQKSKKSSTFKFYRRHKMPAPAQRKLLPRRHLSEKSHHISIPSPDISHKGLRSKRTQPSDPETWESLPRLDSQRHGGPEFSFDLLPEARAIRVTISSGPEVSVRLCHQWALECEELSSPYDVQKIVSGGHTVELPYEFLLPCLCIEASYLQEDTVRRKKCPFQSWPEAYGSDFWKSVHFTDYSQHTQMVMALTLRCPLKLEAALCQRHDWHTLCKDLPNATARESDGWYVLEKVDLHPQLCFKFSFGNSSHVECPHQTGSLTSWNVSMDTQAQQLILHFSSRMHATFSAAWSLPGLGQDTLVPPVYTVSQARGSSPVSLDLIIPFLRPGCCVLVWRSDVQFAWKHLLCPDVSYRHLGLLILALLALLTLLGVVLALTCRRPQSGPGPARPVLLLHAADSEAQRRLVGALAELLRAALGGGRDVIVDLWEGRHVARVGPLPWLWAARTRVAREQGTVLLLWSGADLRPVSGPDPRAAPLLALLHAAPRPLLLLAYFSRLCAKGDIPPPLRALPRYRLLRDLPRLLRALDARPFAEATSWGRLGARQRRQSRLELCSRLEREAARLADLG
Procedure: as §1

murine ZcytoR21x6 = target: T5, murine ZcytoR21x6 (mouse, UniProt Q8BH06 24-637); assay: as above
T5 construct: also called mouse ZcytoR21x6; mcytor21x6
T5 sequence: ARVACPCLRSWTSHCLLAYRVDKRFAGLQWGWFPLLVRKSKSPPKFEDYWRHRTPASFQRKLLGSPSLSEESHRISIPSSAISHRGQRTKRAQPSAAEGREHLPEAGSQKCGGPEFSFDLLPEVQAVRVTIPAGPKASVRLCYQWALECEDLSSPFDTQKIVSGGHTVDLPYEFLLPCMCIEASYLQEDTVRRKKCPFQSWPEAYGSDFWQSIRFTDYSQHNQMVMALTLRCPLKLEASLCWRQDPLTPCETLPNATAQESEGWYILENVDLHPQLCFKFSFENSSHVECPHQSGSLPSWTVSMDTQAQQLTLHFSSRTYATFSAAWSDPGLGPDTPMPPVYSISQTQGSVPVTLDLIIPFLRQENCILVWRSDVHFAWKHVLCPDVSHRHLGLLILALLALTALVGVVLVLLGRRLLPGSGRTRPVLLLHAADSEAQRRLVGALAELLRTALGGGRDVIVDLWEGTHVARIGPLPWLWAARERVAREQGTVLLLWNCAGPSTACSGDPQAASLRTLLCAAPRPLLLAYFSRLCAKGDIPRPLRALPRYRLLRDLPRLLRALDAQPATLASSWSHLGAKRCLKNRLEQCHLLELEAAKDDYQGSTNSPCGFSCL
Procedure: as §1

B1: human IL-17B (biotinylated) (ligand, UniProt Q9UHF5 21-180, looked up)
chain: QPRSPKSKRKGQGRPGPLAPGPHQVPLDLVSRMKPYARMEEYERNIEEMVAQLRNSSELAQRKCEVNLQLWMSNKRSLSPWGYSINHDPSRIPVDLPEARCLCLGCVNPFTMQEDRSMVSVPVFSQVPVRRRLCPPPPRTGPCRQRAVMETIAVGCTCIF
modifications: biotin label (sites not given)
binding result (human ZcytoR21x1 [1]): no binding | binding result (human ZcytoR21x2 [2]): no binding

B4: murine IL-17C (ligand)
chain: DPPSWGKPRSHRTLRCYSAEELSHGQAPPHLLTRSARWEQALPVALVASLEATGHRRQHEGPLAGTQCPVLRPEEVLEADTHERSISPWRYRIDTDENRYPQKLAVAECLCRGCINAKTGRETAALNSVQLLQSLLVLRRQPCSRDGTADPTPGSFAFHTEFIRVPVGCTCVLPRSTQ
modifications: biotin label in the binding assays (sites not given); unlabelled in the signalling assays
notes: also called mouse IL-17C; IL-17CmCH6
binding result (human ZcytoR21x1 [3]): binds | binding result (human ZcytoR21x2 [4]): binds | binding result (human ZcytoR21x6): binds | binding result (human ZcytoR21x13): binds | binding result (murine ZcytoR21x6): binds

Results, then the binder that gave them:

binding result (human ZcytoR21x1 [1]): no binding | binding result (human ZcytoR21x2 [2]): no binding
B2: human IL-17D (biotinylated) (ligand, UniProt Q8TAD2 18-202, looked up)
chain: APRAGRRPARPRGCADRPEELLEQLYGRLAAGVLSAFHHTLQLGPREQARNASCPAGGRPADRRFRPPTNLRSVSPWAYRISYDPARYPRYLPEAYCLCRGCLTGLFGEEDVRFRSAPVYMPTVVLRRTPACAGGRSVYTEAYVTIPVGCTCVPEPEKDADSINSSIDKQGAKLLLGPNDAPAGP
modifications: biotin label (sites not given)

binding result (human ZcytoR21x1 [1]): no binding | binding result (human ZcytoR21x2 [2]): no binding
B3: human IL-17F (biotinylated) (ligand, UniProt Q96PD4 31-163, looked up)
chain: RKIPKVGHTFFQKPESCPPVPGGSMKLDIGIINENQRVSMSRNIESRSTSPWNYTVTWDPNRYPSEVVQAQCRNLGCINAQGKEDISMNSVPIQQETLVVRRKHQGCSVSFQLEKVLVTVGCTCVTPVIHHVQ
modifications: biotin label (sites not given)
